Assay results as given in publication PMC12617621 (Computational and Structural Biotechnology Journal, 2025).

T1: (NPNA)4 peptide (Plasmodium falciparum CSP repeat …)
T1 chain: NPNANPNANPNANPNA

B1: native anti-NANP Fab (Fab, V domains shown)
VH: EVQLVESGGGLVQPGRSLRLPCTASGFSFGDHAMSWVRQAPGKGLEWVGFIRKTTYGATTHYAAAVRGRFTISRDDSKSIVYLQMNSLKTEDTAVYFCTRVQLDYGPGYQYYGMDVWGQGTTVTVSS
VL: ESVLTQPPSVSGAPGQRVTISCTGMNSNIGAGYDVYWYQQLPGRAPKLLIYGNSNRPSGVPDRFSGSRSGTSASLAITGLQAEDEADYYCQSYDTSLNGWAFGGGTKLTVL
B2: G112T mutant anti-NANP Fab (Fab, V domains shown)
VH: B1 VH
VL: B1 VL

Target: T1, (NPNA)4 peptide
Assay: SPR

Binder | binding result
B1 | binds
B2 | binds
